Measurements published in PMC7673798 (Science Advances, 2020).

Target: the molecule itself
Assay: cryo-EM structure

B1: OpuA polypeptide with the nucleotide-binding domain (NBD) fused to a tandem CBS domain, E190Q (natural protein, Lactococcus lactis, UniProt Q9KIF7 1-408, looked up)
chain: MPVKIKIEHLTKIFGKRIKTALTMVEKGEPKNEILKKTGATVGVYDTNFEINEGEIFVIMGLSGSGKSTLLRLLNRLIEPTSGKIFIDNQDVATLNKEDLLQVRRKTMSMVFQNFGLFPHRTILENTEYGLEVQNVPKEERRKRAEKALDNANLLDFKDQYPKQLSGGMQQRVGLARALANDPEILLMDQAFSALDPLIRREMQDELLELQAKFQKTIIFVSHDLNEALRIGDRIAIMKDGKIMQIGTGEEILTNPANDYVKTFVEDVDRAKVITAENIMIPALTTNIDVDGPSVALKKMKTEEVSSLMAVDKKRQFRGVVTSEQAIAARKNNQPLKDVMTTDVGTVSKEMLVRDILPIIYDAPTPLAVVDDNGFLKGVLIRGSVLEALADIPDEDEVEEIEKEEENK
  binding result: binds
